For this assay, the target named is T1, 53BP1 tandem Tudor domain (residues 1459-1634) (human, UniProt Q12888 1459-1634).
T1 chain: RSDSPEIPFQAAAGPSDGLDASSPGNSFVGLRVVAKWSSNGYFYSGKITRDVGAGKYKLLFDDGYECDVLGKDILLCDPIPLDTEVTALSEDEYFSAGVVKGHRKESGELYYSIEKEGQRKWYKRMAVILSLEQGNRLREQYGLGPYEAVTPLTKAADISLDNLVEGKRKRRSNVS
Put plainly: ITC.

Ends that are not written are not given here. dimethyl = dimethyl-lysine

KGGAKRHRK(dimethyl)VLRDN [H4K20me2 peptide (residues 12-25)] displayed a Kd of 19.8 µM.
